Patent US20040192900A1 (published 2004)

Target: CD22mFc (UniProt P20273 20-687)
Assay: Biacore

B1: chimeric 5/44 variant K60R (antibody, V domains shown)
VH: EVQLQQSGTVLARPGASVKMSCKASGYRFTNYWIHWVKQRPGQGLEWIGGINPGNNYTTYRRNLKGKATLTAVTSASTAYMDLSSLTSEDSAVYYCTREGYGNYGAWFAYWGQGTLVTVSS
VL: DVVVTQTPLSLPVSFGDQVSISCRSSQSLANSYGNTFLSWYLHKPGQSPQLLIYGISNRFSGVPDRFTGSGSGTDFTLKISTIKPEDLGMYYCLQGTHQPYTFGGGTKLEIKR
B1 gave a Kd of 0.204 nM.

B2: chimeric 5/44 variant T57A (antibody, V domains shown)
VH: EVQLQQSGTVLARPGASVKMSCKASGYRFTNYWIHWVKQRPGQGLEWIGGINPGNNYATYKRNLKGKATLTAVTSASTAYMDLSSLTSEDSAVYYCTREGYGNYGAWFAYWGQGTLVTVSS
VL: DVVVTQTPLSLPVSFGDQVSISCRSSQSLANSYGNTFLSWYLHKPGQSPQLLIYGISNRFSGVPDRFTGSGSGTDFTLKISTIKPEDLGMYYCLQGTHQPYTFGGGTKLEIKR
B2 was tested, and the Kd was 0.066 nM.

B3: chimeric 5/44 variant N55Q (antibody, V domains shown)
VH: EVQLQQSGTVLARPGASVKMSCKASGYRFTNYWIHWVKQRPGQGLEWIGGINPGNQYTTYKRNLKGKATLTAVTSASTAYMDLSSLTSEDSAVYYCTREGYGNYGAWFAYWGQGTLVTVSS
VL: DVVVTQTPLSLPVSFGDQVSISCRSSQSLANSYGNTFLSWYLHKPGQSPQLLIYGISNRFSGVPDRFTGSGSGTDFTLKISTIKPEDLGMYYCLQGTHQPYTFGGGTKLEIKR
B3 gave a Kd of 0.327 nM.
